As usually defined, the Kd is a measure of binding affinity in units of concentration. The koff is a measure of how fast the partners let go of each other. What is called kon is the rate constant with which the complex forms.

Changes are numbered by the printed parent chain. In names and notes the source's numbering stands.

We go through eight molecules from patent publication US12365732 (23ANDME, dated 2025).

Experiment [1] concerns the target T1, hu-CD96 isoform 2 on CHO cells (human, UniProt P40200 22-585).
T1 construct: also called CHO-CD96 (isoform 2); CD96-CHOs
T1 sequence: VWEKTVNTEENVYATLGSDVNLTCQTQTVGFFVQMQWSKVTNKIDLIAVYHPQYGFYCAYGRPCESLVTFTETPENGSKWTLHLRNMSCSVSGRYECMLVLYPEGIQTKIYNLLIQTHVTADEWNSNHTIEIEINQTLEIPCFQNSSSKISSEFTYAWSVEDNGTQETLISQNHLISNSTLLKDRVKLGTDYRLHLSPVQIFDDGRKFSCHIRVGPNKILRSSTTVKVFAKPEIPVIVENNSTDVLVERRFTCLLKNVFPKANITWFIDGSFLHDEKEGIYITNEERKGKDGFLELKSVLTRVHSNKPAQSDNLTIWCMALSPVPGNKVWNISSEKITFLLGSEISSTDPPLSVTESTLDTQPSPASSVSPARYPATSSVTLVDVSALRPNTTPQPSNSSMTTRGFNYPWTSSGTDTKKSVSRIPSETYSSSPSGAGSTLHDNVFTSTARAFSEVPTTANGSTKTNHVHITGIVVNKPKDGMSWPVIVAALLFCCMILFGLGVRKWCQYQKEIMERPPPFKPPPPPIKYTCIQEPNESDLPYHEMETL
In words: FACS, Ab 0.4 nM. The procedure: Isoform 1 of hu-CD96 (Origene, catalog #RC213845) was transiently expressed in HEK293T cells following standard lipofectamine or Fugene transfection protocol. […] Cells were washed, and binding was detected by incubation with anti-mouse IgG-FITC (Biolegend, catalog #406001) for 20 minutes at 4° C. Cell binding was analyzed by flow cytometry with a CytoFLEX (Beckman Coulter). Binding curves were calculated as a percentage of cells positive for bound antibody.
Isoform 2 of hu-CD96 (DNA construct: Origene, catalog #RC221005) was expressed on a single-cell-clone-derived CHO stable cell line. Binding of the anti-CD96 antibodies to the CHO cells were determined as described above with isoform 1 of hu-CD96.

For experiment [2], the target named is T2, cynomolgus monkey CD96 on cynomolgus monkey PBMCs (cynomolgus monkey, UniProt A0A2K5TWV6 22-569).
T2 construct: whole, on cells
T2 sequence: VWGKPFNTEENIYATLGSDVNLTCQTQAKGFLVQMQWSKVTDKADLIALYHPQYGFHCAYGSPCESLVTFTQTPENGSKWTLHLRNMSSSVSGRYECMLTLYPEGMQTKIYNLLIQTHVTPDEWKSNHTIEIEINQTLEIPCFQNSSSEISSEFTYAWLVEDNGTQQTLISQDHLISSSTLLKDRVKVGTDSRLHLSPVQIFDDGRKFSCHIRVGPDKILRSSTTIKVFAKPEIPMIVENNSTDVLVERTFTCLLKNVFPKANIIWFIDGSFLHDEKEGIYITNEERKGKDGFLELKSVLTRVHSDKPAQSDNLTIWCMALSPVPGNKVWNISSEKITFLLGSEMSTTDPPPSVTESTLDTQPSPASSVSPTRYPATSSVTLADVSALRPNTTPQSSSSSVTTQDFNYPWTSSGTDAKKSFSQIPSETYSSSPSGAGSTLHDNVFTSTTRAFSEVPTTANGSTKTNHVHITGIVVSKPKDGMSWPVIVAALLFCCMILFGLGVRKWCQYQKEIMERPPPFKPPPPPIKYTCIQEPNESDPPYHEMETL
In words: FACS, Ab 0.128 nM. Here is the method: (§1) The ability of the anti-CD96 antibodies to bind primary immune cells from human and cynomolgus monkey with lower level of receptor expression was measured. Human PBMCs (StemCell Technologies, catalog #70025) and cynomolgus monkey PBMCs (Primate Biologicals, catalog #CM-MC) were incubated with human TruStain FcX (Biolegend, catalog #422302) for 10 minutes at 4° C., followed by incubation with an anti-CD96 antibody for 20 minutes at 4° C. Cells were washed and the anti-CD96 antibody binding was detected by incubation with anti-mouse IgG-PE (Thermo Fisher, catalog #M30204) or anti-human IgG (Fab) 2-PE (Thermo Fisher, catalog #H10104) for 20 minutes at 4° C. Cells were washed, and immune subtypes were labeled with anti-CD3 (BD, catalog #557705), anti-CD4 (Biolegend, catalog #317424) and anti-CD8 (BD, catalog #557760) for 20 minutes at 4° C. Cell binding was analyzed by flow cytometry with a CytoFLEX (Beckman Coulter). Binding curves were calculated as a percentage of cells positive for bound antibody in the cell type of interest.
A general note: Flow cytometry measures light scatter and fluorescence of single cells or particles in a stream.

For experiment [3], the target named is T2, cynomolgus monkey CD96 on cynomolgus …. In words: FACS, Ab 16 nM. Here is the method:
as §1

In a further experiment the target is T3, cy-CD96 Fc (cynomolgus monkey, biotinylated in Table 16).
T3 construct: also called biotinylated cy-CD96-Fc
As to the kind of experiment: SPR 37C, biotin-CD96-Fc captured, IgG analyte. Here is the method:
(§2) Briefly, a 1:4 dilution of Biotin CAPture Reagent (GE Healthcare) into HBS-EP buffer (0.01 M HEPES pH 7.4, 0.15 M NaCl, 3 mM EDTA, 0.005% Surfactant P20) was applied to the chip at 2 µL/min flow rate. For the kinetics measurements, 20 nM biotinylated hu-CD96-Fc and cy-CD96-Fc was captured at 10 µL/min to achieve ~50 response units in the second flow cell (FC2). FC1 was kept as a reference. Next, 4-fold serial dilutions of IgG in HBS-P buffer (0.01 M HEPES pH 7.4, 0.15 M NaCl, 0.005% surfactant P20) from low (3.125 nM) to high (200 nM) concentration were injected (flow rate: 10 µL/min) at 37° C. The sensorgram was recorded and subject to reference and buffer subtraction before evaluating by BIACORE® 8K Evaluation Software (version 1.1.1.7442). Association rates ($kon$) and dissociation rates ($koff$) were calculated using a simple one-to-one Langmuir binding model. The equilibrium dissociation constant (K_D) value was calculated as the ratio of $koff/kon$.

The target of the next experiment is T4, hu-CD96 Fc (human, biotinylated in Table 16).
T4 construct: also called biotinylated hu-CD96-Fc
In words: SPR 37C, biotin-CD96-Fc captured, IgG analyte. The procedure:
as §2

B1: 10G1 (clone 10G1.3G8), purified hybridoma antibody (antibody, V domains shown)
VH: QIQLVQSGPELKKPGETVKISCKASGYPFTTYGMSWVKQAPGKGLKWMGWINTDSGVPTYADDFKGRFAFSLETSANTAYLQINSLKNEDAATYFCARNIYYGWGNFDYWGQGTILTVSS
VL: DILMTQSPTTLSVTPGETVSLSCRASQDIYRNLHWYQQKSQGTPRLLIKHASDSISGIPSRFTGSGSGTDFTLSINSVKPEDEGIYYCLQGYSMPYTFGGGTKLEIK
notes: murine hybridoma IgG
With B1, the “% positive” value in experiment [1] turned out to be 25%.

B2: 7E5, purified hybridoma antibody (antibody, V domains shown)
VH: QVQLKESGPGLVAPSQSLSIICTVSGFSLTNYGIHWIRQPPGKGLEWLGIIWAGGSTNYNSALMSRLTISKDNSKSQVFLKMNSLQTNDTAIYYCARVSMMGFAYWGQGTLVTVSA
VL: QAVVTQESALTTSPGETVTLTCRSSTGAVTTSNYANWVQEKPDHLFTGLIGGTNNRAPGVPARFSGSLIGDKAALTITGAQTEDEAIYFCSLWYGSHWVFGGGTKLTVL
notes: murine hybridoma IgG
B2: the “% positive” value in experiment [1] is 44.1%.

B3: mAb1.v7 IgG (humanized 12F8) (antibody, V domains shown)
VH: EVQLVQSGAEVKKPGASVKVSCKASGFTFTNNWMHWVRQAPGQGLEWIGMIHPNSGITNINEKFKNRVTMTTDTSTSTAYMELRSLRSEDTAVYYCRSDGTYEGYFDYWGQGTLVTVSS
VL: DIQLTQSPSSLSASVGDRVTITCKASQNVGTAIVWYQQKPGKAPKVLIYSASTRYTGVPSRFSGSGSGTDFTLTISSLQPEDFATYYCQQYSSSPLTFGQGTKVEIKG
notes: human IgG1 N297G
With B3, the “% positive” value in experiment [1] came to 17.7%.

B4: mAb1.v7.NGS11 IgG (antibody, V domains shown)
VH: B3 VH with W33F, M50F, P53A, T101V
VL: B3 VL
notes: human IgG1 N297G
Regarding B4, the “% positive” value in experiment [2] was found to be 63.5%. Also, the “% positive” value in experiment [3] amounted to 80.8%. In the experiment with cy-CD96 Fc, this molecule had a Kd of 1.52 nM, a koff of 0.000513 s⁻¹ and a kon of 338000 M⁻¹ s⁻¹. In the experiment with hu-CD96 Fc, this molecule returned an equilibrium dissociation constant (Kd) of 0.08 nM, a koff of 1.38e-05 s⁻¹ and an on-rate (kon) of 173000 M⁻¹ s⁻¹.

B5: mAb1.v7.NGS10 IgG (antibody, V domains shown)
VH: B3 VH with W33F, M50F, P53A, T101I
VL: B3 VL
notes: human IgG1 N297G
Turning to B5, in experiment [2], the “% positive” value turned out to be 64.6%. For the same molecule, in experiment [3], the “% positive” value amounted to 78.5%. In the experiment with cy-CD96 Fc, this molecule yielded a Kd of 0.49 nM, a koff of 0.000374 s⁻¹ and a kon of 767000 M⁻¹ s⁻¹. In the experiment with hu-CD96 Fc, this molecule came in with a dissociation constant (Kd) of 0.01 nM, a koff of 1.84e-06 s⁻¹ and a kon of 144000 M⁻¹ s⁻¹.

B6: mAb1.v7.NGS9 IgG (antibody, V domains shown)
VH: B3 VH with W33F, P53A, T101V
VL: B3 VL
notes: human IgG1 N297G
For B6, the “% positive” value in experiment [2] is 49.4%. Further, the “% positive” value in experiment [3] amounted to 76.1%. In addition, in the experiment with cy-CD96 Fc, binding was put at a Kd of 2.88 nM, the koff came out at 0.000734 s⁻¹ and the kon was determined as 255000 M⁻¹ s⁻¹. Moreover, in the experiment with hu-CD96 Fc, the Kd turned out to be 0.2 nM, the koff came out at 5.42e-05 s⁻¹ and the kon is 266000 M⁻¹ s⁻¹.

B7: 9H4, purified hybridoma antibody (antibody, V domains shown)
VH: EVQLLETGGGLVKSGGSLKLSCAASGFTFSDYYMYWVRQTPEKRLEWVAAISDDGTYTYYPDSVKGRFTISRDNANNYLYLQMSSLKSEDTAIYYCAKAGSYDYFDVWGAGTTVTVSS
VL: DIVLTQSPASLAVSLGQRAIISCKASQSVTFADTGLMHWYQQKPGQQPKLLIYRASNLEVGVPTRFSGSGSGTDFTLNIHPVEEEDVATYYCQQSREYPWTFGGGTKLEIK
notes: murine hybridoma IgG
In the case of B7, the “% positive” value in experiment [1] was 24.1%.

B8: h10G1 IgG (humanized 10G1) (antibody, V domains shown)
VH: EIQLVQSGSELKKPGASVKVSCKASGYPFTTYGMSWVRQAPGQGLEWMGWINTDSGVPTYADDFKGRFVFSLDTSVSTAYLQISSLKAEDTAVYFCARNIYYGWGNFDYWGQGTLVTVSS
VL: EIVMTQSPDFQSVTPKEKVTITCRASQDIYRNLHWYQQKPDQTPKLLIKHASDSISGIPSRFSGSGSGTDFTLTINSLEAEDAAAYYCLQGYSMPYTFGGGTKVEIKG
notes: human IgG1 N297G
On to B8, for which the “% positive” value in experiment [2] stood at 38.2%. Moreover, the “% positive” value in experiment [3] is 66.1%. For the same molecule, in the experiment with cy-CD96 Fc, the affinity, expressed as Kd, was 1.13 nM; the koff amounted to 0.00789 s⁻¹; the kon turned out to be 6.99e+06 M⁻¹ s⁻¹. Moreover, in the experiment with hu-CD96 Fc, the affinity, expressed as Kd, was 0.64 nM; the koff stood at 0.000393 s⁻¹; the kon was found to be 612000 M⁻¹ s⁻¹.
